PMC10227007

How the values were obtained:
[1] = target: MYC-OsSERL2 (overexpression line MYC-OsSERL2-OE1) (Oryza sativa japonica cv. Zhonghua 11 (ZH11)); assay: co-IP; seedlings of COG1-HA-L1/MYC-OsSERL2-OE1 treated at 4 °C for 0, 24 and 48 h; total protein adjusted to equivalent levels of COG1-HA; precipitated with Anti-c-Myc Magnetic Beads, COG1-HA band measured by Image J (0 h = 1.0)
[2] = target: OsSERL2-MYC-cCFP (Oryza sativa japonica cv. Zhonghua 11 (ZH11)); assay: split reporter (BiFC, NanoBiT); BiFC in rice protoplasts, nVenus and cCFP fusions co-expressed, YFP fluorescence by confocal microscopy (Leica TCS SP5); in one experiment the protoplasts were kept at 28 °C or 4 °C for 24 h and the intensity measured by Image J

| relative density of the co-precipitated COG1-HA band after 24 h at 4 °C, against 0 h (1.0) (relative to 0 h (1.0)) [1] | relative density of the co-precipitated COG1-HA band after 48 h at 4 °C, against 0 h (1.0) (relative to 0 h (1.0)) [1] | BiFC fluorescence intensity at 4 °C for 24 h, relative to 28 °C (1.0) (relative to 28 °C (1.0)) [2] | Substance |
| --- | --- | --- | --- |
| 4.7 | 5.8 |  | COG1-HA (from the COG1::COG1-HA transgene, line COG1-HA-L1) (receptor) |
|  |  | 4.1 | COG1-HA-nVenus (receptor) |
